B1: MG12-7 (Fc fusion)
chain 1: HGEGTFTSDVSSYLEGQAAKEFIAWLVKGGPSSGAPPPSGGGGSGGGGSGGGGSAKNTTAPATTRNTTRGGEEKKKEKEKEEQEERTHTCPPCPSHTQPLGVFLFPPKPKDQLMISRTPEVTCVVVDVSQEDPEVQFNWYVDGVEVHNAKTKPREEQFNSTYRVVSVLTVLHQDWLNGKEYKCKVSNKGLPSSIEKTISKAKGQPREPQVYTLPPCQEEMTKNQVSLWCLVKGFYPSDIAVEWESNGQPENNYKTTPPVLDSDGSFFLYSRLTVDKSRWQEGNVFSCSVLHEALHNHYTQKSLSLSLGK
chain 2: HGDGSFSDEMNTILDGQAARDFINWLIQTKITDGGGGSGGGGSGGGGSEPKSSDKTHTCPPCPSHTQPLGVFLFPPKPKDQLMISRTPEVTCVVVDVSQEDPEVQFNWYVDGVEVHNAKTKPREEQFNSTYRVVSVLTVLHQDWLNGKEYKCKVSNKGLPSSIEKTISKAKGQPREPQVCTLPPSQEEMTKNQVSLSCAVKGFYPSDIAVEWESNGQPENNYKTTPPVLDSDGSFFLVSRLTVDKSRWQEGNVFSCSVLHEALHNHYTQKSLSLSLGK
B2: MG12-8 (Fc fusion)
chain 1: HGEGTFTSDVSSYLEGQAAKEFIAWLVKGGPSSGAPPPSGGGGSGGGGSGGGGSGGGGSGGGGSGGGGSHGEGTFTSDVSSYLEGQAAKEFIAWLVKGGPSSGAPPPSGGGGSGGGGSGGGGSEPKSSDKTHTCPPCPSHTQPLGVFLFPPKPKDQLMISRTPEVTCVVVDVSQEDPEVQFNWYVDGVEVHNAKTKPREEQFNSTYRVVSVLTVLHQDWLNGKEYKCKVSNKGLPSSIEKTISKAKGQPREPQVYTLPPCQEEMTKNQVSLWCLVKGFYPSDIAVEWESNGQPENNYKTTPPVLDSDGSFFLYSRLTVDKSRWQEGNVFSCSVLHEALHNHYTQKSLSLSLGK
chain 2: B1 chain 2
B3: MG12-6 (Fc fusion)
chain 1: HGEGTFTSDVSSYLEGQAAKEFIAWLVKGGPSSGAPPPSGGGGSGGGGSGGGGSEKEKEEQEERTHTCPPCPSHTQPLGVFLFPPKPKDQLMISRTPEVTCVVVDVSQEDPEVQFNWYVDGVEVHNAKTKPREEQFNSTYRVVSVLTVLHQDWLNGKEYKCKVSNKGLPSSIEKTISKAKGQPREPQVYTLPPCQEEMTKNQVSLWCLVKGFYPSDIAVEWESNGQPENNYKTTPPVLDSDGSFFLYSRLTVDKSRWQEGNVFSCSVLHEALHNHYTQKSLSLSLGK
chain 2: HGDGSFSDEMNTILDNLAARDFINWLIQTKITDGGGGGSGGGGSGGGGSAKNTTAPATTRNTTRGGEEKKKEKEKEEQEERTHTCPPCPSHTQPLGVFLFPPKPKDQLMISRTPEVTCVVVDVSQEDPEVQFNWYVDGVEVHNAKTKPREEQFNSTYRVVSVLTVLHQDWLNGKEYKCKVSNKGLPSSIEKTISKAKGQPREPQVCTLPPSQEEMTKNQVSLSCAVKGFYPSDIAVEWESNGQPENNYKTTPPVLDSDGSFFLVSRLTVDKSRWQEGNVFSCSVLHEALHNHYTQKSLSLSLGK

Key:
[1] = Histological analysis of pancreatic tissue of db/db mice; assay type: in vivo; conditions: pancreas after 12 weeks of dosing
Source text: Subsequently, after completion of the above experiment, the present inventors sacrificed the experimental animals and performed histological analysis of pancreatic tissues. Specifically, after euthanizing the animals under general anesthesia at the end of the animal study, the pancreas was excised, fixed in 4% paraformaldehyde, embedded in paraffin, sectioned transversely into 5 µm slices using a microtome, and then subjected to staining either with insulin alone, double staining with insulin and glucagon, or double staining with insulin and Ki-67. All double staining was carried out using fluorescent-labeled antibodies, followed by imaging with a confocal laser microscope.

[2] = Anti-diabetic effect in db/db mice (blood glucose, HbA1c, insulin, HOMA-IR, HOMA-β); assay type: in vivo; conditions: 15 nmol/kg s.c. every three days for 12 weeks
Description: Specifically, 14-week-old male db/db mice (Janvier Labs, France) were subcutaneously injected every three days for 12 weeks with designated doses of Semaglutide, Tirzepatide, or the bispecific fusion protein MG12-8 according to one embodiment of the present invention. Subsequently, non-fasting blood glucose levels were measured at 25-day intervals (on days 25, 50, and 75 of the experiment), and HbA1c levels were measured monthly up to three months. Additionally, at the end of the experiment, fasting blood glucose and serum insulin concentrations were determined, and HOMA-IR and HOMA-β scores were calculated.

[3] = biological target: GLP-1 receptor; experiment: cell-based or functional assay
[4] = biological target: GLP-2 receptor; experiment: cell-based or functional assay
[5] = Intestinal leakage (serum FITC-Dextran fluorescence) in MASH model (CD-HFD + DSS); assay type: in vivo, C57BL/6J mice; conditions: 55 nmol/kg twice daily s.c.
Source text: (§1) Subsequently, the present inventors investigated the weight reduction and regulation of intestinal leakage in a metabolic dysfunction-associated steatohepatitis (MASH) animal model with intestinal leakage, using Liraglutide as a comparative control and MG12-8 according to one embodiment of the present invention. Specifically, twenty-week-old male C57BL/6J mice were obtained, and overweight was induced by feeding a choline-deficient high-fat diet (CD-HFD). In addition, intestinal leakage was induced by cyclically administering dextran sulfate sodium (DSS) at a low concentration of 1% for 7 days followed by 10 days of regular drinking water. After two weeks from the initiation of CD-HFD feeding, Liraglutide and MG12-8 were subcutaneously administered at their respective prescribed dosages and dosing intervals. Two weeks after the first administration, body weight was measured (FIG. 4a). To assess intestinal leakage, a fluorescein isothiocyanate (FITC)-Dextran (4 kDa) solution was administered orally 4 hours before sacrifice, after which the mice were fasted. The amount of FITC-Dextran translocated into the blood was then evaluated by measuring fluorescence intensity in serum.

[6] = Body weight in MASH model with intestinal leakage (CD-HFD + DSS); assay type: in vivo, C57BL/6J mice; conditions: 55 nmol/kg twice daily s.c., two weeks after first administration
Source text: as §1

Row | Molecule | GLP-1 activity (Set1), EC50 (nM); cAMP bioluminescence in GLP-1R-expressing CHO-K1 cells [3] [nM] | GLP-1 activity (Set1), Relative activity compared with hGLP-1 peptide (%) [3] [%] | GLP-1 activity (Set2), EC50 (nM); cAMP bioluminescence in GLP-1R-expressing CHO-K1 cells [3] [nM] | GLP-1 activity (Set2), Relative activity compared with hGLP-1 peptide (%) [3] [%] | GLP-2 activity, EC50 (nM); cAMP bioluminescence in GLP-2R-expressing CHO-K1 cells [4] [nM] | GLP-2 activity, Relative activity compared with hGLP-2 peptide (%) [4] [%] | other results
1 | CC[C@H](C)[C@H](NC(=O)[C@H](CC(C)C)NC(=O)[C@H](Cc1c[nH]c2ccccc12)NC(=O)[C@H](CCC(N)=O)NC(=O)[C@@H](NC(=O)[C@H](Cc1ccccc1)NC(=O)[C@H](C)NC(=O)[C@H](CCCCNC(=O)COCCOCCNC(=O)COCCOCCNC(=O)CC[C@H](NC(=O)CCCCCCCCCCCCCCCCCCC(=O)O)C(=O)O)NC(=O)[C@H](CCC(N)=O)NC(=O)[C@H](C)NC(=O)[C@@H](NC(=O)[C@H](CCCCN)NC(=O)[C@H](CC(=O)O)NC(=O)[C@H](CC(C)C)NC(=O)C(C)(C)NC(=O)[C@@H](NC(=O)[C@H](CO)NC(=O)[C@H](Cc1ccc(O)cc1)NC(=O)[C@H](CC(=O)O)NC(=O)[C@H](CO)NC(=O)[C@@H](NC(=O)[C@H](Cc1ccccc1)NC(=O)[C@@H](NC(=O)CNC(=O)[C@H](CCC(=O)O)NC(=O)C(C)(C)NC(=O)[C@@H](N)Cc1ccc(O)cc1)[C@@H](C)O)[C@@H](C)O)[C@@H](C)CC)[C@@H](C)CC)C(C)C)C(=O)N[C@@H](C)C(=O)NCC(=O)NCC(=O)N1CCC[C@H]1C(=O)N[C@@H](CO)C(=O)N[C@@H](CO)C(=O)NCC(=O)N[C@@H](C)C(=O)N1CCC[C@H]1C(=O)N1CCC[C@H]1C(=O)N1CCC[C@H]1C(=O)N[C@@H](CO)C(N)=O [Tirzepatide] | – | – | – | – | – | – | number of Ki-67-positive cells per 10,000 µm^2 [1]: showed no improvement compared with the control group; insulin resistance index (HOMA-IR) [2]: > 40
2 | wild-type GLP-1 (human GLP-1 peptide) (from UniProt P01275 21-180) | 0.69 | 100 | 0.89 | 100 | – | – | –
3 | wild-type GLP-2 (human GLP-2 peptide) | – | – | – | – | 1.18 | – | –
4 | Liraglutide (HAEGTFTSDVSSYLEGQAAKEFIAWLVRGRG; REGION 1..31: note = Liraglutide) [GLP-1 receptor agonist marketed by Novo Nordisk as Victoza for the treatment of type 2 diabetes and obesity] | – | – | – | – | – | – | intestinal leakage suppression activity (serum FITC-Dextran) [5]: did not exhibit intestinal leakage suppression activity relative to the control; body weight compared with vehicle [6]: reduced body weights compared with the vehicle-administered group
5 | B1 | 0.35 | 194 | 0.57 | 156 | 50.8 | 2 | –
6 | B2 | 0.81 | 85 | 0.71 | 125 | 19 | 6 | relative GLP-1 activity, MG12-8 Sample #1; cAMP bioluminescence in HEK-GLP-1R cells [3]: 100%; relative GLP-1 activity, MG12-8 Sample #2; cAMP bioluminescence in HEK-GLP-1R cells [3]: 200%; relative GLP-1 activity, MG12-8 Sample #3; cAMP bioluminescence in HEK-GLP-1R cells [3]: 300%; relative GLP-1 activity, MG12-8 Sample #4; cAMP bioluminescence in HEK-GLP-1R cells [3]: 400%
7 | B3 | 1.57 | 44 | 1.12 | 79 | 2.42 | 49 | –
